Article PMC11066147 (Heliyon, 2024)
Where “and” joins values, the source holds several entries; their conditions need not be identical. Equal values may be shown once. Read-outs that look alike come from different tables or passages of the source.

B1: Plasmodium falciparum Hsp110 (PfHsp70-z, PF3D7_0708800) (natural protein)
chain: MSVLGIDIGNDNSVVATINKGAINVVRNDISERLTPTLVGFTEKERLIGDSALSKLKSNYKNTCRNIKNLIGKIGTDVKDDIEIHEAYGDLIPCEYNYLGYEVEYKNEKVVFSAVRVLSALLSHLIKMAEKYIGKECKEIVLSYPPTFTNCQKECLLAATKIINANVLRIISDNTAVALDYGMYRMKEFKEDNGSLLVFVNIGYANTCVCVARFFSNKCEILCDIADSNLGGRNLDNELIKYITNIFVNNYKMNPLYKNNTPELCPMGTGRLNKFLVTSTASDQQNGINNKVRIKLQEVAIKTKKVLSANNEASIHVECLYEDLDCQGSINRETFEELCSNFFLTKLKHLLDTALCISKVNIQDIHSIEVLGGSTRVPFIQNFLQQYFQKPLSKTLIADESIARGCVLSAAMVSKHYKVKEYECVEKVTHPINVEWHNINDASKSNVEKLYTRDSLKKKVKKIVIPEKGHIKLTAYYENTPDLPSNCIKELGSCIVKINEKNDKIVESHVMTTFSNYDTFTFLGAQTVTKSVIKSKDEKKKADDKTEDKGEKKDAKDQEQNDDKDQTNDNNMNEKDTNDKKEKNNETNSPNKTELKKGEEGKVQTCYTTIPIETLLAQGSYSSKDIFNFSEQEINMQHSDILEGERLKHLNELETIIYESRSRLNGIYKNFVMDDERDRILLSLDDYENWLYDNIEENKNMFIKKKEEIRDLIKNIVQKFDVYNSKQQNLGNIINHLNNIITQCSNKPSDESQNIINRTTKFLNNINSLQEQEKNKPLYEPPVYTLNDIEAEFNEVTQLAQKFFSKLEVEELAKQKAKQEKEKEKEKEKEKEKEKEKNEETNLDANEEQNNEAKNNEEKENSTKNENSANPEE
B2: Plasmodium falciparum heat shock protein 70-1 (PfHsp70-1) (natural protein)
chain: not shown

Columns and labels:
Experiment in all cases: SPR
[1] = target: the molecule itself
[2] = target: B1
[3] = target: T1, E. coli Hsp70 (DnaK) (E. coli, UniProt P0A6Y8 1-638)
[4] = target: B2
[5] = target: B1; remark: listed apart in the source
[6] = target: T1, E. coli Hsp70 (DnaK); remark: listed apart in the source
[7] = target: B2; remark: listed apart in the source
[8] = target: B1; remark: listed apart in the source

Row | Binder | koff [1] | binding result [2] | Kd [3] | Kd [4] | Kd [5] | Kd [6] | Kd [7] | Kd [8]
1 | B1 | 5.27e-05 s⁻¹ and 7.73e-05 s⁻¹ and 3.37e-05 s⁻¹ |  |  |  |  |  |  | 
2 | B2 |  | binds |  |  |  |  |  | 
3 | NRNNTG |  |  | 7310 ± 10 nM | 296 ± 0.07 nM | 52.5 ± 0.05 nM | 24.9 ± 0.09 nM | 10.2 ± 0.02 nM | 24.1 ± 0.01 nM
4 | ALLLMYRR |  |  | 4450 ± 50 nM | 140 ± 0.4 nM | 97.1 ± 0.09 nM | 82 ± 0.02 nM | 61.8 ± 0.08 nM | 43.1 ± 0.01 nM
5 | ANNNMYRR |  |  | 8960 ± 60 nM | 45.4 ± 0.07 nM | 8.31 ± 0.01 nM | 440 ± 4 nM | 4.02 ± 0.02 nM | 9.37 ± 0.07 nM
6 | NRLLTG |  |  | 2530 ± 30 nM | 181 ± 0.01 nM | 128 ± 0.08 nM | 12.3 ± 0.03 nM | 97.4 ± 0.04 nM | 145 ± 0.03 nM
